Test results reported in paper PMC8041713, “Identification and biochemical characterisation of tyrosine aminotransferase from Anthoceros agrestis unveils the conceivable entry point into rosmarinic acid biosynthesis in hornworts” (Planta, 2021).

Tests used:
Experiment in all cases: purified protein
purified protein [1] = substrate: O=C(O)CC(=O)C(=O)O; settings: co-substrate 6 mM L-tyrosine, 0.48 mM PLP, 1 M Tris/HCl pH 8.5, 40 °C
purified protein [2] = substrate: N[C@@H](Cc1ccc(O)cc1)C(=O)O; format: biochemical, Anthoceros agrestis; settings: co-substrate 80 mM 2-oxoglutarate, 0.48 mM PLP, 1 M Tris/HCl pH 8.5, 40 °C
purified protein [3] = substrate: O=C(O)CCC(=O)C(=O)O; format: biochemical, Anthoceros agrestis; settings: co-substrate 6 mM L-tyrosine, 0.48 mM PLP, 1 M Tris/HCl pH 8.5, 40 °C
purified protein [4] = substrate: O=C(O)C(=O)Cc1ccccc1; format: biochemical, Anthoceros agrestis; settings: co-substrate 6 mM L-tyrosine, 0.48 mM PLP, 1 M Tris/HCl pH 8.5, 40 °C
purified protein [5] = substrate: N[C@@H](Cc1ccccc1)C(=O)O; format: biochemical, Anthoceros agrestis; settings: co-substrate 80 mM 2-oxoglutarate, 0.48 mM PLP, 1 M Tris/HCl pH 8.5, 40 °C
purified protein [6] = substrate: CC(=O)C(=O)O; format: biochemical, Anthoceros agrestis; settings: co-substrate 6 mM L-tyrosine, 0.48 mM PLP, 1 M Tris/HCl pH 8.5, 40 °C

B1: AaTAT (tyrosine aminotransferase) (Anthoceros agrestis) (protein)
chain: MATVLNQKRQAEILHGNGVEGGGGGLAVSKIMSKAVVGKPPVARKPAGKTVDKEWNVRPRIAALESRNPIRDIVETKLKPNPNLGKKPISLAQGDPTVYGHLKVPESACAALAEVATSYKYNGYAHSAGILECRSAVADFHSEHLPFELTPEDVGIVVGCSQAIEFSIACLAAEGSNMLVPRPGFPIYDTFCRYYGVEVRYYDLLPERGWEVDLEQVAELADDDTAAMILCNPSNPCGTSFSYQHLSQIAGLCEKLKLPIISDEIYEHMLFGEKKFTPMATFSLQVPVLTVGGISKRWLAPGWRLGWILICDPCCILEKSGVVEALKRIMQMTIGTSVLVQAAVPAMLQNTTPEFYKQTMKTLEDGCDCCYRRIQGIVGLDVPTKPDGAMYMMAKVDPSAFKDIPDDTVFAEKLVKEENIVVLPGSAFGIHNWLRLVFATPVYMLEEAFDRIEAFCLRHASVQN
notes: full length, 464 residues (1395 bp), N-terminal 6xHis tag kept, pET-15b, E. coli SoluBL21, Ni-NTA
Purified protein [1]
  Km: 4.05 ± 1.44 mM
  Vmax: 0.756 µmol/min/mg
  kcat: 0.7 s⁻¹
  kcat/Km: 200 M⁻¹ s⁻¹
Purified protein [2]
  Km: 0.53 ± 0.05 mM
  Vmax: 55.3 µmol/min/mg
  kcat: 48.9 ± 7.6 s⁻¹
  kcat/Km: 91700 ± 9800 M⁻¹ s⁻¹
Purified protein [3]
  Km: 15.13 ± 1.34 mM
  Vmax: 82.6 µmol/min/mg
  kcat: 73.1 ± 5.2 s⁻¹
  kcat/Km: 4900 ± 300 M⁻¹ s⁻¹
Purified protein [4]
  Km: 7.92 ± 2.35 mM
  Vmax: 31.8 µmol/min/mg
  kcat: 28.2 ± 6.2 s⁻¹
  kcat/Km: 3900 ± 1400 M⁻¹ s⁻¹
Purified protein [5]
  Km: 70.47 ± 4.18 mM
  Vmax: 134 µmol/min/mg
  kcat: 119 ± 26.9 s⁻¹
  kcat/Km: 1700 ± 400 M⁻¹ s⁻¹
Purified protein [6]
  Km: 81.14 ± 15.12 mM
  Vmax: 13.4 µmol/min/mg
  kcat: 11.9 ± 1.6 s⁻¹
  kcat/Km: 150 ± 20 M⁻¹ s⁻¹
